Experiments:
[1] = molecular target: Factor Xa; experiment: cell-based or functional assay
[2] = molecular target: the molecule itself; experiment: SEC; Superdex 75 10/300, 20 mM Tris-HCl, 0.15 M NaCl, pH 8, 0.5 mL/min; column calibrated with salivary proteins of known mass
[3] = molecular target: T1, Lys-plasminogen (UniProt P00747 97-810); experiment: SPR; Ixonnexin amine-coupled to a carboxymethylated dextran (CM5) chip, 726.2 RU; analytes injected 120 s at 30 µL/min, 25 °C, dissociation 600 s; global fit with the two-state (conformational change) model, Langmuir 1:1 for plasmin; conditions: both partners purified
T1 construct: source: bought: Enzyme Research Laboratories or Innovative Research
T1 sequence (P00747 97-810): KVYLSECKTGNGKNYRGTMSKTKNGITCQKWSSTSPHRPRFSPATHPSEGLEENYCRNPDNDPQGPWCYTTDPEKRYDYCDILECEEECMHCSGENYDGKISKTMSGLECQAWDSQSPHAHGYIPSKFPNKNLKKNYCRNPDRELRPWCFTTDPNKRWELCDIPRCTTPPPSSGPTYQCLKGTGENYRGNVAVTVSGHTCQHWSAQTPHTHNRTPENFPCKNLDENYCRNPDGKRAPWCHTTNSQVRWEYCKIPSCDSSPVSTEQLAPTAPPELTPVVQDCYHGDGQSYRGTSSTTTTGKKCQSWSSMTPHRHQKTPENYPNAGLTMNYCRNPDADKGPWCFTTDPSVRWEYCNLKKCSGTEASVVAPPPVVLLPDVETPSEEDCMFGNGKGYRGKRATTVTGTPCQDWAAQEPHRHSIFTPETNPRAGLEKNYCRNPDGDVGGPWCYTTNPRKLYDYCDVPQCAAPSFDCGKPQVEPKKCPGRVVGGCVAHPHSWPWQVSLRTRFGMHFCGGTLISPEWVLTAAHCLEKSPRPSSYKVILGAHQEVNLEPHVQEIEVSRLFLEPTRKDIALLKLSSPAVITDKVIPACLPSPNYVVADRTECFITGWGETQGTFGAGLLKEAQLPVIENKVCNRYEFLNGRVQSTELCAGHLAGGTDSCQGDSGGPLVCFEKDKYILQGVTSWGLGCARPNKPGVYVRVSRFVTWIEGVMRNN

Sequence of Factor Xa (P00742 32-488): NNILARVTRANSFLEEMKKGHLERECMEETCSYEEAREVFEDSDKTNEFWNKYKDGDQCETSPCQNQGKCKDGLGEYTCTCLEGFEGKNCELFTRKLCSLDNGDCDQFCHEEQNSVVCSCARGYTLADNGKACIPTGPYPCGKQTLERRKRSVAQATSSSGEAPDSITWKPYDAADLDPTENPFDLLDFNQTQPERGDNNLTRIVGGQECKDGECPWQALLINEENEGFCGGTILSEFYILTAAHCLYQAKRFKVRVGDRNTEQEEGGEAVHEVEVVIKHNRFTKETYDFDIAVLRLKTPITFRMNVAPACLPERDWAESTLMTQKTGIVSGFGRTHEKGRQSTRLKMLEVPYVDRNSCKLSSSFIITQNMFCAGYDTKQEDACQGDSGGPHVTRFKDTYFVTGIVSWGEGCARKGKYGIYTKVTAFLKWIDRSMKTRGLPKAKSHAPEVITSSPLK

B1: Ixonnexin (natural protein)
chain: HNCQNGTRPASEENREGCDYYCWNAETKSWDQFFFGNGERCFYNTGEKGTCLNGECHLTTSSGGPDDTGDNTPPPTEKPKQKKKKPKKTKKPKRKSKKDQKENF
notes: Ixonnexin, 'Basic-tail' family salivary protein of Ixodes scapularis (gi 67083505); the precursor has a signal peptide of 21 residues (cut between Ala21 and His22); the mature protein of 104 residues was synthesized; numbers count on: the mature protein; 3 disulfide bonds after folding; Gel filtration is consistent with a non-covalent dimer; mass spectrometry gave a single monomeric mass; also …
Question: Which results are given for B1?
Answer: amidolytic activity of FXa (0.33 nM) on a fluorogenic substrate, enhanced by Ixonnexin: IC50 [1]: 9.73 nM; stoichiometry N [2]: 2; Kd [3]: 14.4 nM
